Data published in publication PMC5594493, “Antiproliferative factor (APF) binds specifically to sites within the cytoskeleton-associated protein 4 (CKAP4) extracellular domain” (BMC Biochemistry, 2017).

Experiments:
CKAP4_(127–360) [1] = target: T1, CKAP4_(127–360) (UniProt Q07065 127-360); test: SPR; CKAP4 deletion mutant amine-coupled on Fc2 of a CM5 chip (352, 585, 1914 RU), Fc1 blank reference; multi-cycle kinetics with as-APF 2.5–40 μM, 30 μl/min, 2 min association, 3 min dissociation; 25 °C, PBS with 0.01% Tween-20; heterogeneous ligand, 1:1 or two-state fit
T1 chain: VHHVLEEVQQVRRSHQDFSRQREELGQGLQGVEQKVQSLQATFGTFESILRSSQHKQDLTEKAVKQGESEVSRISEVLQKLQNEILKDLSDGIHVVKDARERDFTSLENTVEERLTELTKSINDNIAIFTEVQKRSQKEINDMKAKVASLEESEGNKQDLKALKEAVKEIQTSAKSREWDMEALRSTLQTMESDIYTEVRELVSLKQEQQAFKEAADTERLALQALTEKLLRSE

CKAP4_(525–602) = CKAP4_(525–602) (UniProt Q07065); test: as above
CKAP4_(361–524) = CKAP4_(361–524) (UniProt Q07065); test: as above
CKAP4_525–602 = target: T2, CKAP4_525–602 (Homo sapiens, UniProt Q07065); test: SPR binding kinetics, CKAP4_525–602 immobilized on CM5; details: CM5 amine-coupling
T2 construct: amino acids 106–602, 127–360, 361–524, and 525–602 regions were generated by PCR and subcloned into the pET-15b bacterial expression vector; His-tag; made in house; host or cells: E. coli BL21(DE3)pLysS
T2 sequence (Q07065 525-602): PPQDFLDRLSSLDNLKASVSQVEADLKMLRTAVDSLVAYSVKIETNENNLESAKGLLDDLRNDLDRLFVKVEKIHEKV
Method: (§1) All SPR experiments were performed on a Biacore X-100 instrument (GE Healthcare) with the chip surface at 25 °C using PBS containing 0.01% Tween-20 as running buffer. CKAP4 recombinant proteins were immobilized individually either by Ni^2+/nitrilotriacetic acid (NTA) chelation on Sensor Chip NTA or by amine-coupling on Sensor Chip CM5, on the Fc2 channel. For amine-coupling, the sensor surface on both flow cells was activated for 7 min with a 1:1 mixture of 0.1 M EDC (1-ethyl-3-(3-dimethylaminopropyl) carbodiimide hydrochloride) and 0.1 M NHS (N-hydroxysuccinimide) at a flow rate of 5 μl/min. Immobilization of CKAP4 proteins (on Fc2) was performed in 10 mM sodium acetate buffer, at either pH 4.5, 5.0, or 5.5 based on preliminary pH scouting runs, for optimal binding. […] The data were analyzed using Biacore Evaluation software V2.0. […]
(§2) To assess the as-APF binding activity of the purified CKAP4 deletion mutants, each protein was separately immobilized on a CM5 sensor chip through amine coupling, and SPR responses against APF control peptide and various as-APF concentrations were observed. We used this reverse approach to assess as-APF binding kinetics because the concentration of as-APF synthetic peptide could be calculated more accurately than the purified CKAP4 deletion mutants, which vary in amino acid composition. […]

CKAP4_127–360 = target: T3, CKAP4_127–360 (Homo sapiens, UniProt Q07065); test: SPR binding kinetics, CKAP4_127–360 immobilized on CM5; details: CM5 amine-coupling
T3 construct: amino acids 106–602, 127–360, 361–524, and 525–602 regions were generated by PCR and subcloned into the pET-15b bacterial expression vector; His-tag; made in house; host or cells: E. coli BL21(DE3)pLysS
T3 sequence (Q07065 127-360): T1 chain
Method: as §1, §2

CKAP4_361–524 = target: T4, CKAP4_361–524 (Homo sapiens, UniProt Q07065); test: SPR binding kinetics, CKAP4_361–524 immobilized on CM5; details: CM5 amine-coupling
T4 construct: amino acids 106–602, 127–360, 361–524, and 525–602 regions were generated by PCR and subcloned into the pET-15b bacterial expression vector; His-tag; made in house; host or cells: E. coli BL21(DE3)pLysS
T4 sequence (Q07065 361-524): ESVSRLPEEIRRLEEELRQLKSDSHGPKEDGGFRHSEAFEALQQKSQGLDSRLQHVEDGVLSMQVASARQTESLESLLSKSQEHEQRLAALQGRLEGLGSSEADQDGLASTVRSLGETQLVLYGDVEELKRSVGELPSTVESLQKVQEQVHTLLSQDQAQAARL
Method: as §1, §2

CKAP4 = test: SPR binding to CKAP4 recombinant proteins (overall statements); details: comparison of as-APF, APF and control peptide
Method: as §1, with “binding. Unreacted NHS groups were quenched with a 7 min injection of 1 M ethanolamine pH 8.5. The Fc1 channel was treated similarly but without CKAP4 and served as a reference. Upon stabilization of the baseline signal, multi-cycle kinetics assays were performed with injections of as-APF as analyte at various concentrations (2.5–40 μM) in running buffer at 30 μl/min for 2 min, immediately followed by a 3 min dissociation phase.” for “binding.”

CKAP4_(127–360) [2] = target: T1, CKAP4_(127–360); test: SPR; heterogeneous ligand fit, KD1

as-APF (asialo APF, Galβ1−3GalNAcα-O-…) (peptide)
KD1 (heterogeneous ligand fit) (CKAP4_(127–360) [1]): 4.61 µM
KD2 (heterogeneous ligand fit) (CKAP4_(127–360) [1]): 0.66 nM
stoichiometry N (CKAP4_(127–360) [1]): 7.1
Kd (CKAP4_(525–602)): 197 µM
stoichiometry N (CKAP4_(525–602)): 1.5
Kd (CKAP4_(361–524)): 2.3 µM
stoichiometry N (CKAP4_(361–524)): 1

TVPAAVVVA [APF control peptide]
specific binding (CKAP4_525–602): no specific binding was detected
specific binding (CKAP4_127–360): no specific binding was detected
specific binding (CKAP4_361–524): no specific binding was detected
binding to CKAP4 (in words) (CKAP4): no binding response

B1: as-APF (asialo APF, Galβ1−3GalNAcα-O-TVPAAVVVA) (peptide)
peptide: TVPAAVVVA
modifications: Galβ1−3GalNAcα-O- disaccharide on the N-terminal threonine
Kd (CKAP4_(127–360) [2]): 4.6 µM
